The data set concerns the molecule itself. In words: SEC; Superdex-75 column, elution compared with marker proteins (BSA, ovalbumin, carbonic anhydrase, ribonuclease A).

B1: TRIM36 PRYSPRY domain (domain or fragment, human)
chain: TPPAPVFSFLFDEKCGYNNEHLLLNLKRDRVESRAGFNLLLAAERIQVGYYTSLDYIIGDTGITKGKHFWAFRVEPYSYLVKVGVASSDKLQEWLRSPRDAVSPRYEQDSGHDSGSEDACFDSSQPFTLVTIGMQKFFIPKSPTSSNEPENRVLPMPTSIGIFLDCDKGKVDFYDMDQMKCLYERQVDCSHTLYPAFALMGSGGIQLEEPITAKYLEYQEDM
notes: PRYSPRY domain of human TRIM36, with an additional C-terminal helix; theoretical MW of the dimer 52.4 kDa; Cloned into pNIC-CTH0; also called TRIM36 domain
Consider B1, for which the stoichiometry N (commonly the number of molecules, sites or subunits per partner or assembly) is 2.

Values taken from paper PMC12355088, “Structural analysis of TRIM family PRYSPRY domains and its implications for E3-ligand design” (Journal of Structural Biology: X, 2025).
